B1: anti-TfR1 antibody (high affinity bivalent anti-TfR antibody, parent antibody without hapten-binding scFvs) (antibody, human IgG1, kappa, V domains shown)
VH: EVQLQQSGPELVKPGASMKISCKASGYSFTGYTMNWVKQSHGENLEWIGRINPHNGGTDYNQKFKDKAPLTVDKSSNTAYMELLSLTSEDSAVYYCARGYYYYSLDYWGQGTSVTVSS
VL: QIVLTQSPAIMSASPGEKVTMTCSASSSIRYIHWYQQRPGTSPKRWIYDTSNLASGVPARFSGSGSGTSYSLTISSMEAEDAATYYCHQRNSYPWTFGGGTRLEIKR
notes: also called antibody TfR1
B2: anti-TfR2 antibody (bivalent anti-TfR antibody with reduced affinity, parent antibody without hapten-binding scFvs) (antibody, human IgG1, kappa, V domains shown)
VH: EVQLQQSGPELVKPGASVKMSCKASGYTFTSYVMHWVKQKPGQGLEWIGYVNPYNDDTKYNEKFRGKATLTSDKSSSTAYMELSSLTSEDSAVYYCARSYYYYSMDNWGQGTSVTVSS
VL: QIVLTQSPAIMSASPGEKVTVTCSASSSIRYMHWYQQKPGTSPKRWIYDTSELASGVPARFSGSGSGTSYSLTINSMEAEDAATYYCHQRSSYPFTFGGGTKLEIKR
notes: also called antibody TfR2
B3: TfR1-Bio bispecific antibody (biotinylated payload binding blood brain barrier-shuttle module that binds TfR with high affinity) (bispecific antibody, human IgG1, kappa)
light: QIVLTQSPAIMSASPGEKVTMTCSASSSIRYIHWYQQRPGTSPKRWIYDTSNLASGVPARFSGSGSGTSYSLTISSMEAEDAATYYCHQRNSYPWTFGGGTRLEIKRTVAAPSVFIFPPSDEQLKSGTASVVCLLNNFYPREAKVQWKVDNALQSGNSQESVTEQDSKDSTYSLSSTLTLSKADYEKHKVYACEVTHQGLSSPVTKSFNRGEC
heavy: not shown
notes: also called anti-TfR1 antibody-Bio
B4: TfR2-Bio bispecific antibody (biotinylated payload binding blood brain barrier-shuttle module that binds TfR with reduced affinity) (bispecific antibody, human IgG1, kappa)
light: QIVLTQSPAIMSASPGEKVTVTCSASSSIRYMHWYQQKPGTSPKRWIYDTSELASGVPARFSGSGSGTSYSLTINSMEAEDAATYYCHQRSSYPFTFGGGTKLEIKRTVAAPSVFIFPPSDEQLKSGTASVVCLLNNFYPREAKVQWKVDNALQSGNSQESVTEQDSKDSTYSLSSTLTLSKADYEKHKVYACEVTHQGLSSPVTKSFNRGEC
heavy: not shown
notes: also called anti-TfR2-Bio
B5: TfR1-Dig bispecific antibody (digoxigenylated payload binding blood brain barrier-shuttle module that binds TfR with high affinity) (bispecific antibody, human IgG1, kappa)
light: QIVLTQSPAIMSASPGEKVTMTCSASSSIRYIHWYQQRPGTSPKRWIYDTSNLASGVPARFSGSGSGTSYSLTISSMEAEDAATYYCHQRNSYPWTFGGGTRLEIKRTVAAPSVFIFPPSDEQLKSGTASVVCLLNNFYPREAKVQWKVDNALQSGNSQESVTEQDSKDSTYSLSSTLTLSKADYEKHKVYACEVTHQGLSSPVTKSFNRGEC
heavy: not shown
notes: also called anti-TfR1 antibody-Dig
B6: TfR2-Dig bispecific antibody (digoxigenylated payload binding blood brain barrier-shuttle module that binds TfR with reduced affinity) (bispecific antibody, human IgG1, kappa)
light: QIVLTQSPAIMSASPGEKVTVTCSASSSIRYMHWYQQKPGTSPKRWIYDTSELASGVPARFSGSGSGTSYSLTINSMEAEDAATYYCHQRSSYPFTFGGGTKLEIKRTVAAPSVFIFPPSDEQLKSGTASVVCLLNNFYPREAKVQWKVDNALQSGNSQESVTEQDSKDSTYSLSSTLTLSKADYEKHKVYACEVTHQGLSSPVTKSFNRGEC
heavy: not shown
notes: also called anti-TfR2-antibody Dig

These binders were tested against T1, human transferrin receptor (TfR) on hCMEC/D3 brain endothelial cells (human, UniProt P02786 1-760) (assay: hCMEC/D3 transwell assay, IgG ELISA of cell lysates and media).
T1 construct: whole, on cells; also called blood brain barrier receptor
T1 sequence (P02786 whole entry): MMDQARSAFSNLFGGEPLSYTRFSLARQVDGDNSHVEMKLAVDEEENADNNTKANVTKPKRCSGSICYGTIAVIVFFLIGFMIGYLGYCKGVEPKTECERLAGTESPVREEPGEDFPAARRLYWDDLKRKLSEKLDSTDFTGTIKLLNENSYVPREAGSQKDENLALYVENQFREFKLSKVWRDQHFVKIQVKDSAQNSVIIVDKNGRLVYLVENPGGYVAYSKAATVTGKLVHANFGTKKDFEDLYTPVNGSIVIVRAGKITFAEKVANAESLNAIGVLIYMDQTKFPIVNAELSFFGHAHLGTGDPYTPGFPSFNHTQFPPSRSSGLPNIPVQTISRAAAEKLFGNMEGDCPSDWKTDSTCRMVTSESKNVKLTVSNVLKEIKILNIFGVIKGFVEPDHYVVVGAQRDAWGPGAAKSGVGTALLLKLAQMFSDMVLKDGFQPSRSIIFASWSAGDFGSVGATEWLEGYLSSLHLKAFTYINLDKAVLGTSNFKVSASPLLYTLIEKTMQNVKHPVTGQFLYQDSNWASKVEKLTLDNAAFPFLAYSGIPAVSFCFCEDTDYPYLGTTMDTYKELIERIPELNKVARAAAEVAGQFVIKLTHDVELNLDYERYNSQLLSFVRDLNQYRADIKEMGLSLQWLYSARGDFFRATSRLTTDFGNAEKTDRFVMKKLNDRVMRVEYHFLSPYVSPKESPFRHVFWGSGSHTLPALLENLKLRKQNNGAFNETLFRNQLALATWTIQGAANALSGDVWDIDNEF
Experimental: We used brain endothelial cells (hCMEC/D3) to investigate cell binding and transcytosis of the shuttle modules as reported herein. […] To investigate cell binding and transcytosis in hCMEC/D3, hCMEC/D3 cells cultured on filter inserts were incubated apically with the bispecific antibody or parent antibody (without hapten-binding scFvs as controls) for 1 h at 37° C. Cell monolayers were washed at RT in serum-free medium apically (400 μl) and basolaterally (1600 μl) three times for 3-5 min. each. All wash volumes were collected to monitor efficiency of removal of the unbound ligand or antibody. Pre-warmed medium was added to the apical chamber and the filters transferred to a fresh 12 well plate (blocked overnight with PBS containing 1% BSA) containing 1600 μl pre-warmed medium. At this point, cells on some of the filters were lysed in 500 μl RIPA buffer (Sigma, Munich, Germany, #R0278) in order to determine specific uptakes. The remaining filters were incubated at 37° C., and samples of cells and of basolateral and apical media were collected at various time points to determine apical and/or basolateral release. The content of antibody in the samples was quantified using a highly sensitive IgG ELISA.
B1: binds.
B2: binds.
B3: binds.
B4: binds.

These binders were tested against T1, human transferrin receptor (TfR) on … (assay: FACS on hCMEC/D3 cells, anti-IgG-PE detection, Dig-Cy5 as payload).
Text: To evaluate this functionality of the hapten-binding bispecific antibodies as reported herein, simultaneous cell surface and payload binding was addressed by FACS analyses. For these analyses, cell binding of the blood brain barrier-shuttle module (=bispecific antibody) was detected by phytoerythrin-labeled IgG recognizing secondary antibodies. Simultaneous payload binding was detected by application of a haptenylated fluorescent payload (digoxigenylated Cy5; DIG-Cy5 (see above)).
B5: binds.
B6: binds.

Reference: patent US20210069338A1 (published 2021)
